Source: US20130195807A1

Biological target: GHRH receptor (GHRH-R) of rat insulinoma INS-1 cells (rat) (UniProt Q02644)
Assay: cell-based or functional assay

UniProt Q02644, sequence (Q02644 23-464): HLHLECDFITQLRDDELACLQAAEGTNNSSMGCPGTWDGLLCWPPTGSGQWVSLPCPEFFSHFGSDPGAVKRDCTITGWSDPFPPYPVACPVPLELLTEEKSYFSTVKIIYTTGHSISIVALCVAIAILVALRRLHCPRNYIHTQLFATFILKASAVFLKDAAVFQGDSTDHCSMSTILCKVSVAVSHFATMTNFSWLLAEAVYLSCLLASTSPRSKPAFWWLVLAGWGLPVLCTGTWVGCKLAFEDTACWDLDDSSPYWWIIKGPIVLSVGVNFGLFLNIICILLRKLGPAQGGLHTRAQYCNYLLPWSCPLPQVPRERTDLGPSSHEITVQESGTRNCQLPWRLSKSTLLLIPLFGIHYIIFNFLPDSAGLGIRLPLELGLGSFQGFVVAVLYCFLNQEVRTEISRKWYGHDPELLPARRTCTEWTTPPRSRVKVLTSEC

GHRH agonist JI-36, (Dat1, Thr8, Orn12,21, Abu15, Nle27, Asp28, Agm29)hGH-RH(1-29) (peptide)
apoptosis of INS-1 cells as indicated by activity of caspases 3 and 7: 20 % reduction | cell proliferation of INS-1 cells: 50 % increase
